Assay results: publication PMC7948503, “Optimization of a peptide ligand for the adhesion GPCR ADGRG2 provides a potent tool to explore receptor biology” (The Journal of Biological Chemistry, 2020)
Non-standard residues stand in square brackets, D forms with d. Primed or numbered codes have the meaning given here. No end group written: not given here. Phe(4-Me) = Cc1ccc(C[C@H](N)C(=O)O)cc1; FITC′ = not defined here

Tests used:
Assay in all cases: FRET or BRET; HEK293 cells transfected with Rluc-ADGRG2-ΔGPS-β WT or mutants, stimulated by increasing concentrations of FITC-conjugated VPM-p15; saturation curves fitted with GraphPad; each experiment repeated 6 times
Conditions in all cases: one partner purified
Rluc-ADGRG2-ΔGPS-β Y666A = biological target: T1, Rluc-ADGRG2-ΔGPS-β Y666A (mouse, UniProt Q8CJ12-3 38-995, Y666A)
T1 construct: ADGRG2 (GPR64), mouse, ADGRG2-ΔGPS-β: the entire ECD removed; source: HEK293, transfected, on cells; not shown: Rluc, N-terminal, kept
T1 sequence (Q8CJ12 other isoform, or with tags, fused parts or gaps Y666A | Y666A | Y666A Y666A): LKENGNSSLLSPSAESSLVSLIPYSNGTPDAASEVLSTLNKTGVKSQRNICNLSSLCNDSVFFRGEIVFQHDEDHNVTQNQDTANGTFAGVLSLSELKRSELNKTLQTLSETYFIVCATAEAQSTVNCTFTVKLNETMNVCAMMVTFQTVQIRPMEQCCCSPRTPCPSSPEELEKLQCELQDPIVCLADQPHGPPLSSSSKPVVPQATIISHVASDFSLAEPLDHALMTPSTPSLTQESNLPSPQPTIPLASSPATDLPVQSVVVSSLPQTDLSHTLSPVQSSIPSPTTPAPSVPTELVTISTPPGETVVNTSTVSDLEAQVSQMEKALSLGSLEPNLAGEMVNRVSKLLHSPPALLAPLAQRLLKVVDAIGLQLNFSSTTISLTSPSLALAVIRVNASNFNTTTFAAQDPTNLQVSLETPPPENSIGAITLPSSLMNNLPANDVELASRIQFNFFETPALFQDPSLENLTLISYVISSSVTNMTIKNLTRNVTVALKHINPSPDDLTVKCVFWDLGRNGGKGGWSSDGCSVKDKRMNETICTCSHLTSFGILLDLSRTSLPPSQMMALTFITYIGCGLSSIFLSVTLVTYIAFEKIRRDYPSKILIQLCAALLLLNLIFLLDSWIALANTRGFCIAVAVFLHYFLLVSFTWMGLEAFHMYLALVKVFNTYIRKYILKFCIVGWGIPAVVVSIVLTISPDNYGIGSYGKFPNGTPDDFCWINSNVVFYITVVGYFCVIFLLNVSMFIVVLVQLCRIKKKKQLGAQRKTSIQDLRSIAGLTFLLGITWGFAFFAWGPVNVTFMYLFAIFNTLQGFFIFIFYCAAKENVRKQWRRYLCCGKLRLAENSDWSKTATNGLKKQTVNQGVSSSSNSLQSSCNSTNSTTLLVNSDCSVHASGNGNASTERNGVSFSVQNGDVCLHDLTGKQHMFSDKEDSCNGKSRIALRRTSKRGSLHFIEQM

Rluc-ADGRG2-ΔGPS-β F671A = biological target: T2, Rluc-ADGRG2-ΔGPS-β F671A (mouse, UniProt Q8CJ12-3 38-995, F671A)
T2 construct: ADGRG2 (GPR64), mouse, ADGRG2-ΔGPS-β: the entire ECD removed; source: HEK293, transfected, on cells; not shown: Rluc, N-terminal, kept
T2 sequence (Q8CJ12 other isoform, or with tags, fused parts or gaps F671A | F671A | F671A F671A): as the sequence (Q8CJ12 other isoform, or with tags, fused parts or gaps Y666A | Y666A | Y666A Y666A) above, with A629Y, F634A counted along it

Rluc-ADGRG2-ΔGPS-β L679A = biological target: T3, Rluc-ADGRG2-ΔGPS-β L679A (mouse, UniProt Q8CJ12-3 38-995, L679A)
T3 construct: ADGRG2 (GPR64), mouse, ADGRG2-ΔGPS-β: the entire ECD removed; source: HEK293, transfected, on cells; not shown: Rluc, N-terminal, kept
T3 sequence (Q8CJ12 other isoform, or with tags, fused parts or gaps L679A | L679A | L679A L679A): as the sequence (Q8CJ12 other isoform, or with tags, fused parts or gaps Y666A | Y666A | Y666A Y666A) above, with A629Y, L642A counted along it

Rluc-ADGRG2-ΔGPS-β I730A = biological target: T4, Rluc-ADGRG2-ΔGPS-β I730A (mouse, UniProt Q8CJ12-3 38-995, I730A)
T4 construct: ADGRG2 (GPR64), mouse, ADGRG2-ΔGPS-β: the entire ECD removed; source: HEK293, transfected, on cells; not shown: Rluc, N-terminal, kept
T4 sequence (Q8CJ12 other isoform, or with tags, fused parts or gaps I730A | I730A | I730A I730A): as the sequence (Q8CJ12 other isoform, or with tags, fused parts or gaps Y666A | Y666A | Y666A Y666A) above, with A629Y, I693A counted along it

Rluc-ADGRG2-ΔGPS-β I741A = biological target: T5, Rluc-ADGRG2-ΔGPS-β I741A (mouse, UniProt Q8CJ12-3 38-995, I741A)
T5 construct: ADGRG2 (GPR64), mouse, ADGRG2-ΔGPS-β: the entire ECD removed; also called F741A (as the methods list it); source: HEK293, transfected, on cells; not shown: Rluc, N-terminal, kept
T5 sequence (Q8CJ12 other isoform, or with tags, fused parts or gaps I741A | I741A | I741A I741A): as the sequence (Q8CJ12 other isoform, or with tags, fused parts or gaps Y666A | Y666A | Y666A Y666A) above, with A629Y, I704A counted along it

[1] = biological target: T6, Rluc-ADGRG2-ΔGPS-β wildtype (mouse, UniProt Q8CJ12-3 38-995)
T6 construct: also called WT; ADGRG2-ΔGPS-β WT; source: HEK293, transfected, on cells; not shown: Rluc, N-terminal, kept
T6 sequence (Q8CJ12 other isoform, or with tags, fused parts or gaps mutant): as the sequence (Q8CJ12 other isoform, or with tags, fused parts or gaps Y666A | Y666A | Y666A Y666A) above, with A629Y counted along it

Rluc-ADGRG2-ΔGPS-β S760A = biological target: T7, Rluc-ADGRG2-ΔGPS-β S760A (mouse, UniProt Q8CJ12-3 38-995, S760A)
T7 construct: ADGRG2 (GPR64), mouse, ADGRG2-ΔGPS-β: the entire ECD removed; source: HEK293, transfected, on cells; not shown: Rluc, N-terminal, kept
T7 sequence (Q8CJ12 other isoform, or with tags, fused parts or gaps S760A | S760A | S760A S760A): as the sequence (Q8CJ12 other isoform, or with tags, fused parts or gaps Y666A | Y666A | Y666A Y666A) above, with A629Y, S723A counted along it

Rluc-ADGRG2-ΔGPS-β F764A = biological target: T8, Rluc-ADGRG2-ΔGPS-β F764A (mouse, UniProt Q8CJ12-3 38-995, F764A)
T8 construct: ADGRG2 (GPR64), mouse, ADGRG2-ΔGPS-β: the entire ECD removed; source: HEK293, transfected, on cells; not shown: Rluc, N-terminal, kept
T8 sequence (Q8CJ12 other isoform, or with tags, fused parts or gaps F764A | F764A | F764A F764A): as the sequence (Q8CJ12 other isoform, or with tags, fused parts or gaps Y666A | Y666A | Y666A Y666A) above, with A629Y, F727A counted along it

Rluc-ADGRG2-ΔGPS-β V768A = biological target: T9, Rluc-ADGRG2-ΔGPS-β V768A (mouse, UniProt Q8CJ12-3 38-995, V768A)
T9 construct: ADGRG2 (GPR64), mouse, ADGRG2-ΔGPS-β: the entire ECD removed; source: HEK293, transfected, on cells; not shown: Rluc, N-terminal, kept
T9 sequence (Q8CJ12 other isoform, or with tags, fused parts or gaps V768A | V768A | V768A V768A): as the sequence (Q8CJ12 other isoform, or with tags, fused parts or gaps Y666A | Y666A | Y666A Y666A) above, with A629Y, V731A counted along it

Rluc-ADGRG2-ΔGPS-β T610A = biological target: T10, Rluc-ADGRG2-ΔGPS-β T610A (mouse, UniProt Q8CJ12-3 38-995, T610A)
T10 construct: ADGRG2 (GPR64), mouse, ADGRG2-ΔGPS-β: the entire ECD removed; source: HEK293, transfected, on cells; not shown: Rluc, N-terminal, kept
T10 sequence (Q8CJ12 other isoform, or with tags, fused parts or gaps T610A | T610A | T610A T610A): as the sequence (Q8CJ12 other isoform, or with tags, fused parts or gaps Y666A | Y666A | Y666A Y666A) above, with T573A, A629Y counted along it

Rluc-ADGRG2-ΔGPS-β F828A = biological target: T11, Rluc-ADGRG2-ΔGPS-β F828A (mouse, UniProt Q8CJ12-3 38-995, F828A)
T11 construct: ADGRG2 (GPR64), mouse, ADGRG2-ΔGPS-β: the entire ECD removed; source: HEK293, transfected, on cells; not shown: Rluc, N-terminal, kept
T11 sequence (Q8CJ12 other isoform, or with tags, fused parts or gaps F828A | F828A | F828A F828A): as the sequence (Q8CJ12 other isoform, or with tags, fused parts or gaps Y666A | Y666A | Y666A Y666A) above, with A629Y, F791A counted along it

Rluc-ADGRG2-ΔGPS-β F829A = biological target: T12, Rluc-ADGRG2-ΔGPS-β F829A (mouse, UniProt Q8CJ12-3 38-995, F829A)
T12 construct: ADGRG2 (GPR64), mouse, ADGRG2-ΔGPS-β: the entire ECD removed; source: HEK293, transfected, on cells; not shown: Rluc, N-terminal, kept
T12 sequence (Q8CJ12 other isoform, or with tags, fused parts or gaps F829A | F829A | F829A F829A): as the sequence (Q8CJ12 other isoform, or with tags, fused parts or gaps Y666A | Y666A | Y666A Y666A) above, with A629Y, F792A counted along it

Rluc-ADGRG2-ΔGPS-β M839A = biological target: T13, Rluc-ADGRG2-ΔGPS-β M839A (mouse, UniProt Q8CJ12-3 38-995, M839A)
T13 construct: ADGRG2 (GPR64), mouse, ADGRG2-ΔGPS-β: the entire ECD removed; source: HEK293, transfected, on cells; not shown: Rluc, N-terminal, kept
T13 sequence (Q8CJ12 other isoform, or with tags, fused parts or gaps M839A | M839A | M839A M839A): as the sequence (Q8CJ12 other isoform, or with tags, fused parts or gaps Y666A | Y666A | Y666A Y666A) above, with A629Y, M802A counted along it

Rluc-ADGRG2-ΔGPS-β Y611A = biological target: T14, Rluc-ADGRG2-ΔGPS-β Y611A (mouse, UniProt Q8CJ12-3 38-995, Y611A)
T14 construct: ADGRG2 (GPR64), mouse, ADGRG2-ΔGPS-β: the entire ECD removed; source: HEK293, transfected, on cells; not shown: Rluc, N-terminal, kept
T14 sequence (Q8CJ12 other isoform, or with tags, fused parts or gaps Y611A | Y611A | Y611A Y611A): as the sequence (Q8CJ12 other isoform, or with tags, fused parts or gaps Y666A | Y666A | Y666A Y666A) above, with Y574A, A629Y counted along it

Rluc-ADGRG2-ΔGPS-β S661A = biological target: T15, Rluc-ADGRG2-ΔGPS-β S661A (mouse, UniProt Q8CJ12-3 38-995, S661A)
T15 construct: ADGRG2 (GPR64), mouse, ADGRG2-ΔGPS-β: the entire ECD removed; source: HEK293, transfected, on cells; not shown: Rluc, N-terminal, kept
T15 sequence (Q8CJ12 other isoform, or with tags, fused parts or gaps S661A | S661A | S661A S661A): as the sequence (Q8CJ12 other isoform, or with tags, fused parts or gaps Y666A | Y666A | Y666A Y666A) above, with S624A, A629Y counted along it

Rluc-ADGRG2-ΔGPS-β L665A = biological target: T16, Rluc-ADGRG2-ΔGPS-β L665A (mouse, UniProt Q8CJ12-3 38-995, L665A)
T16 construct: ADGRG2 (GPR64), mouse, ADGRG2-ΔGPS-β: the entire ECD removed; source: HEK293, transfected, on cells; not shown: Rluc, N-terminal, kept
T16 sequence (Q8CJ12 other isoform, or with tags, fused parts or gaps L665A | L665A | L665A L665A): as the sequence (Q8CJ12 other isoform, or with tags, fused parts or gaps Y666A | Y666A | Y666A Y666A) above, with L628A, A629Y counted along it

Binder: VS[Phe(4-Me)]GILLDLSRTSLP-{FITC′} [FITC-conjugated VPM-p15 (ADGRG2 Stachel peptide p15 T1V/F3Phe(4-Me))]
- EC50 (Rluc-ADGRG2-ΔGPS-β Y666A): 838 nM
- EC50 (Rluc-ADGRG2-ΔGPS-β F671A): 880 nM
- EC50 (Rluc-ADGRG2-ΔGPS-β L679A): 1160 nM
- EC50 (Rluc-ADGRG2-ΔGPS-β I730A): 1200 nM
- EC50 (Rluc-ADGRG2-ΔGPS-β I741A): 669 nM
- EC50 [1]: 936 nM
- EC50 (Rluc-ADGRG2-ΔGPS-β S760A): 1350 nM
- EC50 (Rluc-ADGRG2-ΔGPS-β F764A): 1110 nM
- EC50 (Rluc-ADGRG2-ΔGPS-β V768A): 1040 nM
- EC50 (Rluc-ADGRG2-ΔGPS-β T610A): 1120 nM
- EC50 (Rluc-ADGRG2-ΔGPS-β F828A): 1170 nM
- EC50 (Rluc-ADGRG2-ΔGPS-β F829A): 323 nM
- EC50 (Rluc-ADGRG2-ΔGPS-β M839A): 896 nM
- EC50 (Rluc-ADGRG2-ΔGPS-β Y611A): 712 nM
- EC50 (Rluc-ADGRG2-ΔGPS-β S661A): 778 nM
- EC50 (Rluc-ADGRG2-ΔGPS-β L665A): 796 nM
